Measured values published in US6844192 (WAKE FOREST UNIVERSITY, dated 2005).
Substitutions are numbered along the chain they refer to. In names and notes the source's numbering stands.

Experiments:
[1] = biological target: adenovirus E1B-55 kDa protein (Ad5) (UniProt P03243); assay: cell-based or functional assay
[2] = biological target: T1, adenovirus E1B-55 kDa protein (Ad5, UniProt P03243 1-496); assay: cell-based or functional assay
T1 sequence: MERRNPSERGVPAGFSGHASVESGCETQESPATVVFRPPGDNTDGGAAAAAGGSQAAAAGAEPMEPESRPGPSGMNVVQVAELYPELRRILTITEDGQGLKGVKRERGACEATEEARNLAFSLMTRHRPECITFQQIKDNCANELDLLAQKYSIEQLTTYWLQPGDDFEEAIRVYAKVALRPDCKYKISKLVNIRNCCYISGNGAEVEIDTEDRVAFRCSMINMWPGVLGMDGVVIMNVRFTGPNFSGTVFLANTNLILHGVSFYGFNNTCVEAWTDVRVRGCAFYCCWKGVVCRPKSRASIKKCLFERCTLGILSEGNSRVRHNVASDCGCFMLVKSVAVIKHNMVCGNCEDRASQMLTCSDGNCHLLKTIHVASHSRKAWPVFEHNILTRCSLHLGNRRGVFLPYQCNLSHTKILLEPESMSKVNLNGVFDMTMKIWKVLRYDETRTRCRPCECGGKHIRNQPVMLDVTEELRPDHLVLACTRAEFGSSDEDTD

E4orf6 variant R240,244,251A (from UniProt P03239 1-294)
HeLa cells in which the E1B-55 kDa protein was retained [1]: > 62 % of cells
cells in which the E1B-55 kDa protein was relocalized to the nucleus [1]: 60 % of cells
value for nuclear E1B-55 kDa protein retention [1]: 62%

E4orf6 variant R240,251A (from UniProt P03239 1-294)
cells with the E1B-55 kDa protein retained in the nucleus [1]: 70 % of cells

E4orf6 variant R240A (from UniProt P03239 1-294)
cells with the E1B-55 kDa protein retained in the nucleus [1]: 90 % of cells

E4orf6 variant R240E (from UniProt P03239 1-294)
cells with predominantly cytoplasmic E1B-55 kDa protein [1]: 46 % of cells
cells with predominantly nuclear E1B-55 kDa protein [1]: 55 % of cells
cells with uniform distribution of the E1B-55 kDa protein [1]: 4 % of cells

E4orf6 variant R244E (from UniProt P03239 1-294)
cells with predominantly nuclear E1B-55 kDa protein [1]: 85 % of cells
value for nuclear E1B-55 kDa protein retention [1]: 91%

E4orf6 variant R248,251A (from UniProt P03239 1-294)
HeLa cells in which the E1B-55 kDa protein was retained [1]: > 62 % of cells
cells with the E1B-55 kDa protein retained in the nucleus [1]: 82 % of cells
value for nuclear E1B-55 kDa protein retention [1]: 80%

E4orf6 variant R248E (from UniProt P03239 1-294)
cells with predominantly nuclear E1B-55 kDa protein [1]: 85 % of cells

E4orf6 variant R251A (from UniProt P03239 1-294)
HeLa cells in which the E1B-55 kDa protein was retained [1]: > 62 % of cells
value for nuclear E1B-55 kDa protein retention [1]: 99%

E4orf6 variant R251E (from UniProt P03239 1-294)
cells with predominantly nuclear E1B-55 kDa protein [1]: 85 % of cells

B1: wild-type adenovirus E4orf6 protein (other)
chain: MTTSGVPFGMTLRPTRSRLSRRTPYSRDRLPPFETETRATILEDHPLLPECNTLTMHNVSYVRGLPCSVGFTLIQEWVVPWDMVLTREELVILRKCMHVCLCCANIDIMTSMMIHGYESWALHCHCSSPGSLQCIAGGQVLASWFRMVVDGAMFNQRFIWYREVVNYNMPKEVMFMSSVFMRGRHLIYLRLWYDGHVGSVVPAMSFGYSALHCGILNNIVVLCCSYCADLSEIRVRCCARRTRRLMLRAVRIIAEETTAMLYSCRTERRRQQFIRALLQHHRPILMHDYDSTPM
value for nuclear E1B-55 kDa protein retention [2]: 100%

B2: E4orf6 variant R241E (other)
chain: B1 chain with R241E
value for nuclear E1B-55 kDa protein retention [2]: 0.8%

B3: E4orf6 variant R241A (other)
chain: B1 chain with R241A
value for nuclear E1B-55 kDa protein retention [2]: 72%
